# Legend:
# mass photometry [1] = molecular target: the molecule itself; experiment: mass photometry
# mass photometry [2] = molecular target: the molecule itself; experiment: mass photometry; remark: listed apart in the source
protein,measurement,setting,value
"N-terminally extended IRF7 isoform (exIRF7, intron 1 retained) with C-terminal 3xFLAG tag (natural protein, human, UniProt Q92985-4 1-516, looked up, phosphorylated (sites not given)) MPVPERPAAGPDSPRPGTRRAAPRVLFGEWLLGEISSGCYEGLQWLDEARTCFRVPWKHFARKDLSEADARIFKAWAVARGRWPPSSRGGGPPPEAETAERAGWKTNFRCALRSTRRFVMLRDNSGDPADPHKVYALSRELCWREGPGTDQTEAEAPAAVPPPQGGPPGPFLAHTHAGLQAPGPLPAPAGDKGDLLLQAVQQSCLADHLLTASWGADPVPTKAPGEGQEGLPLTGACAGGPGLPAGELYGWAVETTPSPGPQPAALTTGEAAAPESPHQAEPYLSPSPSACTAVQEPSPGALDVTIMYKGRTVLQKVVGHPSCTFLYGPPDPAVRATDPQQVAFPSPAELPDQKQLRYTEELLRHVAPGLHLELRGPQLWARRMGKCKVYWEVGGPPGSASPSTPACLLPRNCDTPIFDFRVFFQELVEFRARQRRGSPRYTIYLGFGQDLSAGRPKEKSLVLVKLEPWLCRVHLEGTQREGVSSLDSSSLSLCLSSANSLYDDIECFLMELEQPA",stoichiometry N,mass photometry [1],2
same,fold tighter Kd of dimerization than cIRF7,mass photometry [2],~6 fold
